Measurements from patent publication US20230203138A1 (TRUSTEES OF COLUMBIA UNIVERSITY IN THE CITY OF NEW YORK, published 2023).

Key:
SARS-CoV Spike trimer = SARS-CoV Spike trimer (SARS-CoV, UniProt P59594 14-1190); test: SPR (FIG. 37D)
[1] = target: SARS-CoV-2 receptor binding domain (RBD) (SARS-CoV-2, UniProt P0DTC2 319-591); test: ELISA (FIG. 10)

| Binder | binding result (SARS-CoV Spike trimer) | binding result [1] |
| --- | --- | --- |
| monoclonal antibody 2-4 (antibody, V domains shown) VH: QVQLVQSGAEVKKPGASVKVSCKASGYTFTGYYMHWVRQAPGQGLEWMGWINPNSGGTNYTQMFQGRVTMTRDTSISTAYMEVSRLRSDDTAVYYCARDRSWAVVYYYMDVWGKGTTVTVSS VL: QSALTQPPSASGSPGQSVTISCTGTSSDVGGYNYVSWYQQHPGKAPKLMIYEVSKRPSGVPDRFSGSKSGNTASLTVSGLQAEDEADYYCSSYAGSNNLVFGGGTKLTVL | no binding |  |
| monoclonal antibody 2-7 (antibody, V domains shown) VH: QITLKESGPTLVKPTQTLTLTCTFSGFSLSTSGVGVGWIRQPPGKALEWLALIYWDDDKRYSPSLKSRLTITKDTSKNQVVLTMTNMDPVDTATYYCAHHKIERIFDYWGQGTLVTVSS VL: QSALAQPASVSGSPGQSITISCTGTSSDVGAYNYVSWYQQHPGKAPKLMIYDVSKRPSGVSNRFSGSKSGNTASLTISGLQAEDEADYYCSSYTTSSTVFGGGTKLTVL |  | binds |
| monoclonal antibody 4-20 (antibody, V domains shown) VH: QVQLLQSGAEVKKPGASVKVSCKASGYSFTSYYMHWVRQAPGQGLEWMGIINPSGGGTTYAQKFQGRVTMTRDTSTSTVYMELSSLRSEDTAVYYCARPGGGSYQEFDYWGQGTLVTVSS VL: DIQMTQSPSSLSASVGDRVTITCRASQSISSYLNWYQQKPGKAPKLLISAASSLQSGVPSRFSGSGSGTDFTLTISSLQPEDFATYYCQQSYNTLQVTFGGGTKVEIK |  | binds |
| monoclonal antibody 1-20 (antibody, V domains shown) VH: EVQLVESGGGLIQPGGSLRLSCAASGLTVSSNYMSWVRQAPGKGLEWVSVIYSGGSTFYADSVKGRFTISRDNSKNTLYLQMNSLRAEDTAVYYCARDLFYYGMDVWGQGTTVTVSS VL: DIQLTQSPSFLSASVGDRVTITCRASQGISSYLAWYQQKPGKAPKLLIYAASTLQSGVPSRFSGSGSGTEFTLTISSLQPEDFATYYCQQLNSYPCFGPGTKVDIK |  | binds |
| monoclonal antibody 2-30 (antibody, V domains shown) VH: QVQLVESGGGVVQPGRSLRLSCAASGFTFSSYTMHWVRQAPGKGLEWVAAISYDGNNKYYADSVKGRFTISRDNSKNTLYLQMNSLRAEDTAVYYCARSILYGGGMDVWGQGTTVTVSS VL: DIQLTQSPSSLSASVGDRVTITCRASQGISSYLAWYQQKPGQAPKLLIYAASTLQSGVPSRFSGSGSGTDFTLTISSLQPEDFATYYCQQLNSYPLTFGGGTKVEIK |  | binds |
